From patent US20210063414A1, “METHODS FOR PREVENTING AND/OR TREATING BONE LOSS CONDITIONS BY MODULATING IRISIN” (Dana-Farber Cancer Institute, Inc., priority 2018, published 2021)

Columns and labels:
Test in all cases: Crosslinking/co-immunoprecipitation/mass spectrometry (TMT quantitative proteomics) to identify irisin receptors
Format in all cases: binding
[1] = target: T1, MLO-Y4 cell surface proteins (Mus musculus, UniProt Q3U2P1); conditions: co-precipitated protein Sec24a (SC24A_MOUSE)
T1 construct: endogenous in cells; host or cells: MLO-Y4
T1 sequence (Q3U2P1 1-1090): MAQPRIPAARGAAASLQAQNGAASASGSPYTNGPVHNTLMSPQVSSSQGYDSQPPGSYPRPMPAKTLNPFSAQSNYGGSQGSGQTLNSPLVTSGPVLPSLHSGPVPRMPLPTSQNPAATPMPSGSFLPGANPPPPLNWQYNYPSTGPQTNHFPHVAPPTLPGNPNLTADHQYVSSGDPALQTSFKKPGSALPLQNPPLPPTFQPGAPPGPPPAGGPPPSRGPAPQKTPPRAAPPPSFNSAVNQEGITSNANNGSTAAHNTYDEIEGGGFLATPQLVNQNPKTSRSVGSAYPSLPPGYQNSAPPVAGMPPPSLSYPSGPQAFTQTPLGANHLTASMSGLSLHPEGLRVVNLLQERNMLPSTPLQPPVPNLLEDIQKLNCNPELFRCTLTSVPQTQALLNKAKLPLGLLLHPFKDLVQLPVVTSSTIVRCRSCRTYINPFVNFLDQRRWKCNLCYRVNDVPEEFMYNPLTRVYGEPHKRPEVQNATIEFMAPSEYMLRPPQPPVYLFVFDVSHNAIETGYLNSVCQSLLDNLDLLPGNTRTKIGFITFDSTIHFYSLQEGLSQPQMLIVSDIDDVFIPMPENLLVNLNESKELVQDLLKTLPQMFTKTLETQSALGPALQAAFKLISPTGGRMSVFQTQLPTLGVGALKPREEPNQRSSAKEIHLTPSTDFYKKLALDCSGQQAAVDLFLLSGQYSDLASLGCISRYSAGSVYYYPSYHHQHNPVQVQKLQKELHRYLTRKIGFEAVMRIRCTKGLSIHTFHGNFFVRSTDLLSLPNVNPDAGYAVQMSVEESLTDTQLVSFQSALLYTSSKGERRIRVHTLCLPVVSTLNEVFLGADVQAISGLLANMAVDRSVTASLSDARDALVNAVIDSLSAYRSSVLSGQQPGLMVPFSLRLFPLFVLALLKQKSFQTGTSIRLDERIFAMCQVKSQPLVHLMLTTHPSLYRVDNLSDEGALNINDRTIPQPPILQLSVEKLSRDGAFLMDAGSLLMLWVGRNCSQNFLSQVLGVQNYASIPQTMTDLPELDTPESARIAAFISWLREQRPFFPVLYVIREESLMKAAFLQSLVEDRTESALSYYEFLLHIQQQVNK
In short: (§1)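 Mouse MLO-Y4 cells were switched to serum-free FreeStyle medium for 4 h, chilled, then exposed to 10 nM His-tagged irisin (or adipsin as control) for 20 min. Cells were crosslinked with 1.5 mM DTSSP (30 min, ice), and bound proteins were pulled down on Ni-NTA and eluted with 250 mM imidazole. Eluates were separated by SDS-PAGE, trypsin-digested in gel, TMT 6-plex labelled and quantified by MS3-based LC-MS/MS on an Orbitrap Fusion Lumos.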

[2] = target: T2, MLO-Y4 cell surface proteins (Mus musculus, UniProt Q66L42); conditions: co-precipitated protein Map3k10 (M3K10_MOUSE)
T2 construct: endogenous in cells; host or cells: MLO-Y4
In short: as §1

[3] = target: T3, MLO-Y4 cell surface proteins (Mus musculus, UniProt Q9D125); conditions: co-precipitated protein Mrps25 (RT25_MOUSE)
T3 construct: endogenous in cells; host or cells: MLO-Y4
In short: as §1

T2 sequence (Q66L42 whole entry): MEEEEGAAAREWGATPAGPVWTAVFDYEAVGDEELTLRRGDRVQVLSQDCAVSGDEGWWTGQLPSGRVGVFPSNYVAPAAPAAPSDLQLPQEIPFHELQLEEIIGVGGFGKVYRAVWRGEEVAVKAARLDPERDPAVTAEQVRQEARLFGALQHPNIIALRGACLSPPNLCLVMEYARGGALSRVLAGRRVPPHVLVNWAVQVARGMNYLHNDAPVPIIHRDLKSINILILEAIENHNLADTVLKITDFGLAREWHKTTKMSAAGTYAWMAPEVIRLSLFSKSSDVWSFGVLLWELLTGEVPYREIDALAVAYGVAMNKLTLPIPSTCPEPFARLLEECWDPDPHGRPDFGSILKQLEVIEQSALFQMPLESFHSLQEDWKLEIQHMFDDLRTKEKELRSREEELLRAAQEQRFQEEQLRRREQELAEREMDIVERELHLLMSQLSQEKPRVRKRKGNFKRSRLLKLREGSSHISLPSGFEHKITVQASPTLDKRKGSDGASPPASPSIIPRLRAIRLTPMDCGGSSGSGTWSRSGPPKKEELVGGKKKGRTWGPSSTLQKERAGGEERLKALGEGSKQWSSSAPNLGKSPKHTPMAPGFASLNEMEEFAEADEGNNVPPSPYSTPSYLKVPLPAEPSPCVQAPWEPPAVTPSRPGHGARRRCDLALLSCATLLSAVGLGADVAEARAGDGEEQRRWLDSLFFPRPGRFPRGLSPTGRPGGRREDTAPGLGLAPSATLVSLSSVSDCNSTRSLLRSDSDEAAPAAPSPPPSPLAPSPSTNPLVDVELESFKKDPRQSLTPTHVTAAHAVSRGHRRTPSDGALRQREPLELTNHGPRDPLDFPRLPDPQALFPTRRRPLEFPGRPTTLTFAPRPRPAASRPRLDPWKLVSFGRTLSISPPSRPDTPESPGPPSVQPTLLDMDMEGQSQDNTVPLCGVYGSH

B1: irisin: secreted cleaved form of FNDC5; recombinant human/mouse irisin with C-terminal his tag produced in HEK293 cells (protein)
chain: DSPSAPVNVTVRHLKANSAVVSWDVLEDEVVIGFAISQQKKDVRMLRFIQEVNTTTRSCALWDLEEDTEYIVHVQAISIQGQSPASEPVLFKTPREAEKMASKNKDEVTMKE
modifications: left off: small tags and cut ends
notes: secreted cleaved form of FNDC5; recombinant human/mouse irisin with C-terminal his tag produced in HEK293 cells
TMT signal-to-noise ratio [1]: 29.3088
irisin/adipsin TMT signal-to-noise ratio [1]: 0.246
TMT signal-to-noise ratio [2]: 3.455
irisin/adipsin TMT signal-to-noise ratio [2]: 0.032
TMT signal-to-noise ratio [3]: 10.7103
irisin/adipsin TMT signal-to-noise ratio [3]: 0.126
